Paper PMC4330387

How the values were obtained:
Sp1 (recombinant) = Sp1 (recombinant) (UniProt P08047 1-785); assay: EMSA
GST-ZFDBD-ZBTB2 = biological target: T1, GST-ZFDBD-ZBTB2 (human, UniProt Q8N680 254-468); assay: EMSA
T1 sequence: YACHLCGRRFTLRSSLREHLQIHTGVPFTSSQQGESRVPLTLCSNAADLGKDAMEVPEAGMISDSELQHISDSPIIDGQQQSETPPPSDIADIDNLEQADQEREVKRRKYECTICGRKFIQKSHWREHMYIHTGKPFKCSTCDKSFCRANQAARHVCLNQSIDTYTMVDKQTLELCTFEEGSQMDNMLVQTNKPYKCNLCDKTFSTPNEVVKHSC

Sp1 (recombinant), sequence (P08047 whole entry): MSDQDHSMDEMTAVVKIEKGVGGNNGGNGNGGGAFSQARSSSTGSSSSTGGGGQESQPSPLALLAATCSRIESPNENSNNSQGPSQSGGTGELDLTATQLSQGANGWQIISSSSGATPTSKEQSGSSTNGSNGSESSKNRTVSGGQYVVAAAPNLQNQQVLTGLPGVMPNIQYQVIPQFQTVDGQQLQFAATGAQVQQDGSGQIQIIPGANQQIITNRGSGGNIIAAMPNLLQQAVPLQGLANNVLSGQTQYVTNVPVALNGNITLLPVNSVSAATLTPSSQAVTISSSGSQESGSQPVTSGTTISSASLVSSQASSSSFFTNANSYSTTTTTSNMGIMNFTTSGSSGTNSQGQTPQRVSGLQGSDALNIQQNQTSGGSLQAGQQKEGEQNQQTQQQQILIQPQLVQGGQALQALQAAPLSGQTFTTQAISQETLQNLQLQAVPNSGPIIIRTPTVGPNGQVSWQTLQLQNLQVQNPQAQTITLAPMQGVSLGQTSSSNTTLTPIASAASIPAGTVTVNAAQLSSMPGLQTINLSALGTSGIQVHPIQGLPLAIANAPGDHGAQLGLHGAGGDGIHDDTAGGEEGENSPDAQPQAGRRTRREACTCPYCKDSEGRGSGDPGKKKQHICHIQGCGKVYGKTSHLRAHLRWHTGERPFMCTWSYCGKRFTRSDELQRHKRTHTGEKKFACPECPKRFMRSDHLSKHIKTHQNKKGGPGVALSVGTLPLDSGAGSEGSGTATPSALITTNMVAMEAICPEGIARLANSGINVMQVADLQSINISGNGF

B1: GC-box #3 EMSA probe (dsDNA)
DNA 1: GATCTTTCCCTGCGCGGGGCGGGCGGCCGCAGCCC
DNA 2: GGGCTGCGGCCGCCCGCCCCGCGCAGGGAAAGATC
- binding result (Sp1 (recombinant)): binds
- binding result (GST-ZFDBD-ZBTB2): binds
